Assay: label from the status in PepcDB records

Sequence: MIYENHANTAENNGPLALVLGANGGVGSHVLKMLLQRGWQVRALTRQRVAAGASDGIERVTGDVMNRQDVMDAAKGATLIVHAVNPPGYRDWERQVLPMLDNTIAAAEACGARILLPGTVYNFGPDAFPLLKEDSPQQPFTRKGALRVEMERRLKMASMRGVPVLIVRAGDFFGPDAKNNWFSQMLVRPGKPVRSVQNPAAPHAGHQWAYLPDVAETIGRLLDRSGELPPFAVYHMEGFWDFDGLQLVGAIERAVGRPVKMRRMSWLAIKLAAPFVPLFREVLEMQYLWHMPLRMSNGKLTDFLGAEPKTPVDIAVSATLTSLGCIEQPRVPASLHRPVDAGGRV
- protein production: failed

Sequence: MIYLFSHAGLRDLRDFIDRSTLFAFDLDGTLAPIVSDPAGIMIPPDVHERLVRLNGTASVAVVTGRARVDAARHLGFAPRFLVGNHGAEGLPGADAAEREFIGLCRGWMTQLGELLPEGEGTGIVMEDKSATLSLHYRNAPDRENAHQRILAAVSRLLPAPRRVSGKLVENLVPAAAPHKGDALRCIMRHLGCARALFVGDDVTDEDVFRLGDEAIFGIRVGNSGGSAARYFIRGQDEMAPLLDEILAVL
- protein production: failed

Sequence: MIYMPIVVAVDKKSDRAERVLRFAAEEARLRGVPVYVVHSLPGGGRTKDEDIIEAKETLSWAVSIIRKEGAEGEEHLLVRGKEPPDDIVDFADEVDAIAIVIGIRKRSPTGKLIFGSVARDVILKANKPVICIK
- protein production: not failed

Sequence: MKAANSGRTAAALECFERVVKLQSTPVNWSYLAFCVARERQQFEHATRLCEEAVRREPRSSVLYLNLGKVYLLSGRKDDAIRTFRQGLLYERNTLIESELRRLGLRKPPVLNFLAREHPVNKYLGIMLKKLKIRLEHHHHHH
- protein production: failed

Sequence: MKAFFSFVIRWVIPLLGLIALSLIIWFIGPLLEFLVPEGRRWALIIFIFALWIGYRVFCIIQARRNAAKVLQSLAADTPPDPDSVATAEELAALRQRMDEALALLKKAKLGGDERRNLYELPWYVIIGPPGSGKTTALVNSGLHFPLAAQLGAGAVRGVGGTRNCDWWFTDQAVLLDTAGRYTTQDSHATVDKAAWLGFLDLLKTQRSRRPIDGAFVAISLSDLLLGSEAERAAHAAAIRLRIQELYTQLGVRFPIYLMLTKLDLVPGFMEFFDSLSKEERAQVWGMTFALDDGKSGDSPLAHLPAELAALEQRLNERLVERLQQERDPARRDLIYGFPQQFAALKESLQSFLEGVFKPNAFEERVLLRGVYFTSGTQEGSPIDRLIGAMAQSMNLDRQHLARQTGTGRSYFIEKLFSAVAFAERGLVGVNPKVERRRKWIARGALAGTVALVLVVSTLWIISYRANQAYIAQVDQRVGPVRQDVQNLSPAQRDVLAVLPLLNATRHLAGDAPGWAEGLGLYQGDMLEAESASVYRKLLVAVFAPRLMTRIEEQLHSGGNSDFLYEGLKAYLMLADSEHYDPDFIKAWITLDWDHTLARDLPPEQRQALTGHLQALFEKHPPNARLDQRLIDDLRRQLQQLPVAQRVYDRVKRAKLPDGVPDFRLSEAGGRDAALVFTRKSGKPLSEPLSGLFTAKGYRQGFLLASLNQAGTLAEEQWVLGRDQADQQNVASLAADVRRLYFQDYLRQWDALLADIDFVPITSVAQAADVLRILSGPTSPLKKLLVAVAKETDLQQEERLLAAQGQKVEGGVDQLKQRLGNLLGQEQSANPAAVASSEDPVSAHFAELNSLVSKGEGEPAAIDGLLADMNALYVQVSAMVGASGDALLGEAKNQASAAAARVSLTAERQPPVVQGLVKSVVGSTTNTMMGGVRNQLNAAWVSEVVNVYRQSLSGRYPMSPGSSRDATLEDFGQFFGTGGVMDNYFRKYLQPYVNTSTTTWSWQPGAAQKLGISPGVLQTFQRASNIRDAFFRSSGGTQPAVRFELKPVAMDANISQFLLDLDGQQLSYDHGPSRPVAMQWPNPGSIGVVRLSIMPPSATGRSGITLDGPWAWFRLLEQSDLTATNSPDRFNLRLRVDGASISYELRASSAFNPFKSRVLSGFSLPERL
- protein production: failed

Sequence: MKAKEVSLVALFVALTSVGAQISVSIGPVPLTLQVFFVILAGLVLGPKLGFLSILIYDILGALGIPVFAGFSGGIAHILGPTGGYIIAFPIATFIAGLGRGKVRYLTSLMGLLVIYLIGWMWLARFVGFNKAFILGVLPFIVPDIVKAATAVIIAERLQGNT
- protein production: failed

Sequence: MKANAIASDIKISKRDLEVAALAVIGTVAYIHYLWSFVLKITSPILIARGIFETTYSVLSIGLAKYVRIYYPLGIASSFTGAALTVIKLHLYESEIFSIINIVFDIFSVPVCAFLFIKNMEVINWH
- protein production: failed

Sequence: MKANNHFKDFAWKKCLLGASVVALLVGCSPHIIETNEVALKLNYHPASEKVQALDEKILLLRPAFQYSDNIAKEYENKFKNQTALKVEQILQNQGYKVISVDSSDKDDLSFSQKKEGYLAVAMNGEIVLRPDPKRTIQKKSEPGLLFSTGLDKMEGVLIPAGFVKVTILEPMSGESLDSFTMDLSELDIQEKFLKTTHSSHSGGLVSTMVKGTDNSNDAIKSALNKIFANIMQEIDKKLTQKNLESYQKDAKELKGKRNR
- protein production: failed

Sequence: MKAPELQIQQWFNSATDLTLADLRGKVIVIEAFQMLCPGCVMHGIPLAQKVRAAFPEDKVAVLGLHTVFEHHEAMTPISLKAFLHEYRIKFPVGVDQPGDGAMPRTMAAYQMRGTPSLLLIDKAGDLRAHHFGDVSELLLGAEIATLLGEAAPSVQKQAGTPQGDANCDNDGCTV
- protein production: not failed

Sequence: MKAYTKLLASLVLLSGAYGAPGFANTPELSDKTFRTVNKVQELIATEKYADALSKLNSALSSTSKKQYDRAVLLQQMGFLYSLQDDYPKAAKYFADALSLNALPVPVAQQVRYSLAQLYLAEGQFKKSVATMNEWFKIAETTEEKPQAHAYITLASAYVQLEDYKNAIPPAKQAIAMSKEPSESWYQLLMSAHYELKQFKSVAGVLKILTTKYPKNKRYWTQLSGIYMELNQERNALSTLEMAHKMGLLEGEKEYLRLVNFQAYQGVPFRAAKTLQAAFDNGHVERNAKNLETLGSFWQQAQELEQAIDVYQQAYNLAPQAKTQIKIARLMILDKQYTEATKFTQNAAPDAKHEQKGELSYIRGMAYFELNQPSNALKAMKSAAQSPDMRAMASPWINFLESQG
- protein production: failed

Sequence: MKCKDDMSAVLTAEQALKLVGEMFVYHMPFNRALGMELERYEKEFAQLAFKNQPMMVGNWAQSILHGGVIASALDVAAGLVCVGSTLTRHETISEDELRQRLSRMGTIDLRVDYLRPGRGERFTATSSLLRAGNKVAVARVELHNEEQLYIASATYMVG
- protein production: failed

Sequence: MKCKRLNEVIELLQPAWQKEPDLNLLQFLQKLAKESGFDGELADLTDDILIYHLKMRDSAKDAVIPGLQKDYEEDFKTALLRARGVIKE
- protein production: failed

Sequence: MKCNERDCNNDNGEEDEKDTNTTIAVKLPATTALIVGYDPIDDQHKALSLKRKRTEKLSFINALKGFVQWGSEAVFIEYKGKLASIDLETVKSLGALMDSKEPPAPVNLLF
- protein production: failed

Sequence: MKDKIIDNAITLFSEKGYDGTTLDDIAKSVNIKKASLYYHFDSKKSIYEQSVKCCFDYLNNIIMMNQNKSNYSIDALYQFLFEFIFDIEERYIRMYVQLSNTPEEFSGNIYGQIQDLNQSLSKEIAKFYDESKIKMTKEDFQNLILLFLESWYLKASFSQKFGAVEESKSQFKDEVYSLLNIFLKK
- protein production: failed

Sequence: MKDKRTPMNAFRPKAQTALVVALSLFMAACSNNPLMRTSAATSSDVADEIDRTLEQAEQSQRAASNVSAVPAPSAADISSQLLPPLSSSPQQDERFDVNASEVPASSFFEALVAGTRYNVVVRPDVATTVSLRLSDVTVPEVMDIAADLYGLDITRSGRLYRVAADQVQTRLFPIDYLHFKRRGGSETRVSSGQVSSSRSNREGAGSNDNNEDNETRNLVGTTISTQTESDFWRDIRDALNMIVGGDNGQVVVNPGAGLVMVRAGADDLRLVENYLRKTELIMQRQVVLEAKILEVGLNEGYQQGIDWNDVQSSAGRADYFTSQSLGGQQIRTPDIGGLFSATVSAGDFTGLIELLGQQGNVQILSSPRISTVNNQKAVIKVGTDEFFVTDIDFDDNNSAVTATDSTSTSVELTPFFSGISLDVTPQIAEDGAITLHVHPSVSEVADQEKVITIGERDVTLPLARSTVRETDSVIRAESGQIVVIGGLIQNSSEDNNSAVPFFSEIPLLGELFKQRNFESRKSELVILLRPVVANAGQMQADVSASRERMNVLRELLNSSESVKPQPETAPR
- protein production: failed
